Where “and” joins values, the source holds several entries; their conditions need not be identical. Identical values can stand only once.
T1: Pan1p EH1–2 (96–713) (S. cerevisiae, UniProt P32521 96-713)
T1 sequence (looked up): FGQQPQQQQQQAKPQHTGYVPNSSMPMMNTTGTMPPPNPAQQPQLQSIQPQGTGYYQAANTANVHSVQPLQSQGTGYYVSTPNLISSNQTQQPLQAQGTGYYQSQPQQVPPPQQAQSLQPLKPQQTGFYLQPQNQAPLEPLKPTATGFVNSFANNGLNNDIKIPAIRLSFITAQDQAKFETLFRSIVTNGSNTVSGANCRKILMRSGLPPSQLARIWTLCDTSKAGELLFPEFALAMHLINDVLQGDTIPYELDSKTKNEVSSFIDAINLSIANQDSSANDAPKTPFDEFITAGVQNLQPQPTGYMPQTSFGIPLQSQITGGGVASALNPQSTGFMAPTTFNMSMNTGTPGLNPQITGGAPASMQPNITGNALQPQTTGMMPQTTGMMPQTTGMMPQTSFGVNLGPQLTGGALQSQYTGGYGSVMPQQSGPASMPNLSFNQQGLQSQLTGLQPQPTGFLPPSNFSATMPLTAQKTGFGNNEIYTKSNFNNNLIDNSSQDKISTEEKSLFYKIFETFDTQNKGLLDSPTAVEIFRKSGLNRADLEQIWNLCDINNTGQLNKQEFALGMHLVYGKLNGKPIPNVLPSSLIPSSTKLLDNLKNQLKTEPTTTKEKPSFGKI

T2: Pan1p EH1 (96–403) (S. cerevisiae, UniProt P32521 96-403)
T2 sequence (looked up): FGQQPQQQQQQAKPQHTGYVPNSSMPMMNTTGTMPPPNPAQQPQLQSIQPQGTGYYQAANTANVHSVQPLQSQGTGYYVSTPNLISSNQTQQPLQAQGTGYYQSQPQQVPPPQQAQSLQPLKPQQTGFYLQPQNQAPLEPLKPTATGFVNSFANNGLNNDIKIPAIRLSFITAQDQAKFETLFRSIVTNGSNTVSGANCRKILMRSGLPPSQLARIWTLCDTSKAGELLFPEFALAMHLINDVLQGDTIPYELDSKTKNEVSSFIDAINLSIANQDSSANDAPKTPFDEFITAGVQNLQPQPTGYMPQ

T3: Pan1p EH2 (96–145/403–713) (S. cerevisiae, UniProt P32521 96-145; P32521 403-713)
T3 chain (looked up): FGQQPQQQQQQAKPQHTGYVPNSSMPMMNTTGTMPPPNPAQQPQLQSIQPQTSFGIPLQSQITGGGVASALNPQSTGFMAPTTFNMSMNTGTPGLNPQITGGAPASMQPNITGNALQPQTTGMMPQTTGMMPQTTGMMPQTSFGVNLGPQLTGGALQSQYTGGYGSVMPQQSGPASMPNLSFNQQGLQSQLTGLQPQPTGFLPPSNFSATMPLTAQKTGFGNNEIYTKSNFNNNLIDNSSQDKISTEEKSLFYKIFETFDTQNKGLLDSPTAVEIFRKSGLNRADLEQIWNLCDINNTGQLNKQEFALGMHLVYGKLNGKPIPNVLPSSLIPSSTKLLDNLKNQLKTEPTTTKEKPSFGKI

T4: Pan1p EH2 (544–713) (S. cerevisiae, UniProt P32521 544-713)
T4 sequence (looked up): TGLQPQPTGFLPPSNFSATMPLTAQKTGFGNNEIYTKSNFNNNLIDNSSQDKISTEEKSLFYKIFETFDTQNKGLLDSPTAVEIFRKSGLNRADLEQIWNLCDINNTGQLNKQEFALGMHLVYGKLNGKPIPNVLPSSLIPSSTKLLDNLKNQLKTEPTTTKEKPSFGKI

T5: Pan1p (S. cerevisiae (endogenous in yeast cells)), P32521
T5 chain: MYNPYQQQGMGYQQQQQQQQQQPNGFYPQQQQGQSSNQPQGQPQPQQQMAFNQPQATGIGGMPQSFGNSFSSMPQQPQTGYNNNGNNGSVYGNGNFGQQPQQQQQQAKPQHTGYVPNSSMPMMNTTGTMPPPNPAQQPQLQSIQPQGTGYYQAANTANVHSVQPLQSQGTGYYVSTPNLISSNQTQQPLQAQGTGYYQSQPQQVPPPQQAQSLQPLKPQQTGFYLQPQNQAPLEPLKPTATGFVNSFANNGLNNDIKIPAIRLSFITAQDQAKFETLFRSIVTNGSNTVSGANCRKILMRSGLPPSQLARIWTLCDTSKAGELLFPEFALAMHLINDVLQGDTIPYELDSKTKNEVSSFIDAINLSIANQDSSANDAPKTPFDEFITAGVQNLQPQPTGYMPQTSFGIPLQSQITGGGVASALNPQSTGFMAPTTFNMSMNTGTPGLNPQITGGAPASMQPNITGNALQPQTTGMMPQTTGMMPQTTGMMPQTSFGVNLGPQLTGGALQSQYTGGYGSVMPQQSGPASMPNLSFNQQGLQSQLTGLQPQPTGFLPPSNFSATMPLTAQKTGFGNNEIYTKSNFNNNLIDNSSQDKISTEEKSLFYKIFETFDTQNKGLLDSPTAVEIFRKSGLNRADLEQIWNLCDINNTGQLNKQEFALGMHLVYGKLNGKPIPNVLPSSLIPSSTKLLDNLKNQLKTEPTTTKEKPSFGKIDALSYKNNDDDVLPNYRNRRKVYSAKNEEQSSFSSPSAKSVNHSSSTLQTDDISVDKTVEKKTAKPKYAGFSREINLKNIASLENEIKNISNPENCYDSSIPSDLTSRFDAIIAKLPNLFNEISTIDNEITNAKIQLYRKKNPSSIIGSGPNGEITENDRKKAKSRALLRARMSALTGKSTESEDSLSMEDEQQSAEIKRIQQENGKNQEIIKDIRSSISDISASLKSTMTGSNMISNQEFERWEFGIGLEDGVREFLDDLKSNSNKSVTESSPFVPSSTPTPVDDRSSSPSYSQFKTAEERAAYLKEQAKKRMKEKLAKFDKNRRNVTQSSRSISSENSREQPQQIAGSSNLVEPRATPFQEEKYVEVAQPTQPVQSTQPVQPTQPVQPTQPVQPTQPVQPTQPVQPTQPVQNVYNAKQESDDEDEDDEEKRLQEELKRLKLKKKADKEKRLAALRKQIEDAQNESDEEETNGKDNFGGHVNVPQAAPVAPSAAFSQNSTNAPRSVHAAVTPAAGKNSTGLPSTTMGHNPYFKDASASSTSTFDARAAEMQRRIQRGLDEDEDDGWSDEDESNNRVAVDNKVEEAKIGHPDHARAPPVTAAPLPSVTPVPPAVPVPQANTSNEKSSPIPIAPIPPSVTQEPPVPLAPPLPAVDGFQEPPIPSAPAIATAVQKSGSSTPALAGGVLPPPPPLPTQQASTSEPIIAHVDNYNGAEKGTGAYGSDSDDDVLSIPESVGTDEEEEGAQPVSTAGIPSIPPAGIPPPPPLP


Tests used:
[1] = target: GST-yAP180A C5 (S. cerevisiae); assay: pull-down
[2] = target: T1, Pan1p EH1–2 (96–713); assay: two-hybrid
[3] = target: T2, Pan1p EH1 (96–403); assay: two-hybrid
[4] = target: T3, Pan1p EH2 (96–145/403–713); assay: two-hybrid
[5] = target: T4, Pan1p EH2 (544–713); assay: two-hybrid
[6] = target: T5, Pan1p (S. cerevisiae (endogenous in …)); assay: co-IP; conditions: remark: other sources report otherwise

Molecule | percent of Chc1p depleted from the unbound fraction [1] | units β-galactosidase activity [2] | units β-galactosidase activity [3] | units β-galactosidase activity [4] | units β-galactosidase activity [5] | percent of yAP180A coimmunoprecipitated [6]
yeast clathrin (from UniProt P22137 1-1653; P17891 1-233) (complex) | 50% | – | – | – | – | –
yAP180B 429–568 (domain or fragment, S. cerevisiae, UniProt P53309 429-568, looked up) GGYTTTENNAIMTGTLDPTKTGSNNPFSLENIAREQQQQNFQNSPNPFTLQQAQTTPILAHSQTGNPFQAQNVVTSPMGTYMTNPVAGQLQYASTGAQQQPQMMQGQQTGYVMVPTAFVPINQQQQQQQHQQENPNLIDI | – | 362 ± 67 Units β-galactosidase activity | 70 ± 9 Units β-galactosidase activity | 342 ± 15 Units β-galactosidase activity | 158 ± 15 Units β-galactosidase activity | –
yAP180A, P38856 1-637 (natural protein) MTTYFKLVKGATKIKSAPPKQKYLDPILLGTSNEEDFYEIVKGLDSRINDTAWTIVYKSLLVVHLMIREGSKDVALRYYSRNLEFFDIENIRGSNGSASGDMRALDRYDNYLKVRCREFGKIKKDYVRDGYRTLKLNSGNYGSSRNKQHSINIALDHVESLEVQIQALIKNKYTQYDLSNELIIFGFKLLIQDLLALYNALNEGIITLLESFFELSHHNAERTLDLYKTFVDLTEHVVRYLKSGKTAGLKIPVIKHITTKLVRSLEEHLIEDDKTHNTFVPVDSSQGSAGAVVAKSTAQERLEQIREQKRILEAQLKNEQVAISPALTTVTAAQSYNPFGTDSSMHTNIPMAVANQTQQIANNPFVSQTQPQVMNTPTAHTEPANLNVPEYAAVQHTVNFNPVQDAGVSAQQTGYYSINNHLTPTFTGAGFGGYSVSQDTTAASNQQVSHSQTGSNNPFALHNAATIATGNPAHENVLNNPFSRPNFDEQNTNMPLQQQIISNPFQNQTYNQQQFQQQKMPLSSINSVMTTPTSMQGSMNIPQRFDKMEFQAHYTQNHLQQQQQQQQQQQQQQQQQPQQGYYVPATAGANPVTNITGTVQPQNFPFYPQQQPQPEQSQTQQPVLGNQYANNLNLIDM | – | – | – | – | – | 3% and 5%
yAP180A 24–637 (domain or fragment, S. cerevisiae, UniProt P38856 24-637, looked up) LDPILLGTSNEEDFYEIVKGLDSRINDTAWTIVYKSLLVVHLMIREGSKDVALRYYSRNLEFFDIENIRGSNGSASGDMRALDRYDNYLKVRCREFGKIKKDYVRDGYRTLKLNSGNYGSSRNKQHSINIALDHVESLEVQIQALIKNKYTQYDLSNELIIFGFKLLIQDLLALYNALNEGIITLLESFFELSHHNAERTLDLYKTFVDLTEHVVRYLKSGKTAGLKIPVIKHITTKLVRSLEEHLIEDDKTHNTFVPVDSSQGSAGAVVAKSTAQERLEQIREQKRILEAQLKNEQVAISPALTTVTAAQSYNPFGTDSSMHTNIPMAVANQTQQIANNPFVSQTQPQVMNTPTAHTEPANLNVPEYAAVQHTVNFNPVQDAGVSAQQTGYYSINNHLTPTFTGAGFGGYSVSQDTTAASNQQVSHSQTGSNNPFALHNAATIATGNPAHENVLNNPFSRPNFDEQNTNMPLQQQIISNPFQNQTYNQQQFQQQKMPLSSINSVMTTPTSMQGSMNIPQRFDKMEFQAHYTQNHLQQQQQQQQQQQQQQQQQPQQGYYVPATAGANPVTNITGTVQPQNFPFYPQQQPQPEQSQTQQPVLGNQYANNLNLIDM | – | 78 ± 2 Units β-galactosidase activity | 18 ± 7 Units β-galactosidase activity | 23 ± 4 Units β-galactosidase activity | 2 ± 0.4 Units β-galactosidase activity | –
yAP180A 432–637 (domain or fragment, S. cerevisiae, UniProt P38856 432-637, looked up) GGYSVSQDTTAASNQQVSHSQTGSNNPFALHNAATIATGNPAHENVLNNPFSRPNFDEQNTNMPLQQQIISNPFQNQTYNQQQFQQQKMPLSSINSVMTTPTSMQGSMNIPQRFDKMEFQAHYTQNHLQQQQQQQQQQQQQQQQQPQQGYYVPATAGANPVTNITGTVQPQNFPFYPQQQPQPEQSQTQQPVLGNQYANNLNLIDM | – | 117 ± 75 Units β-galactosidase activity | 6 ± 1 Units β-galactosidase activity | 33 ± 4 Units β-galactosidase activity | 4 ± 1 Units β-galactosidase activity | –
